Measured values published in patent US9463217B1, “Methods and pharmaceutical compositions for treatment of retinal occlusion” (Institut National de la Sante et de la Recherche Medicale, priority 2012, dated 2016).

What was measured:
RBC adhesion in SCD = details: treatment by hydroxyurea, ref. [32]; cited from earlier work
[1] = tested on: adhesion of red blood cells (RBCs) from patients with central retinal vein occlusion to human microvascular endothelial cells (HMEC); experiment: RBC adhesion to HMEC under flow conditions (microslides, video-microscopy), inhibition by antibodies, peptide or annexin V; assay type: cell-based
Protocol: (§1) Blood samples were tested after storage at −196° C. as previously described. For the first 10 patients, RBC adhesion (on three occasions, n=30) was measured just after blood sampling and after storage. As the results were similar before and after storage (the interassay coefficient of variation was 13%±2%) all remaining patients were tested after storage.
Adhesion of RBCs to HMEC under flow conditions was determined according to a previously published technique. Briefly, HMEC were cultured in gelatin (2%) coated glass capillaries (microslides; Camlab Ltd, Cambridge, UK) for 24 h. Microslides containing confluent HMEC were mounted on the stage of a video-microscope. The RBC suspension (hematocrit 0.5%) was perfused through the microslide at a flow rate equivalent to a wall shear stress of 0.03 Pa for […], followed by washout of non-adherent cells for 10 min. The wall shear stress was then increased stepwise (from 0.03 to 0.3 Pa) every 5 min. At each step, adherent RBCs were video-recorded in 10 consecutive fields (one field measures 0.1 mm^2), then were counted using a computerized image analysis system (Optimas Media Cybernetics, Bethesda, Md., USA; R & D Vision, Paris, France) and expressed as number of RBCs per mm^2. Inhibition of RBC adhesion was measured in the presence of the antibodies used in static conditions or after RBC incubation with annexin V.

[2] = tested on: adhesion of red blood cells (RBCs) from patients with central retinal vein occlusion to human microvascular endothelial cells (HMEC-1); experiment: RBC adhesion to HMEC under static conditions (radiometric 51Cr technique), inhibition by antibodies, peptide or annexin V; assay type: cell-based
Protocol: as §1
RBC adhesion was measured under static conditions using a radiometric technique as previously described. Human microvascular endothelial cells (HMEC-1 Biological Branch Products; CDC, Atlanta, Ga., USA) were cultured in MCDB-131 (Invitrogen, Grand Island, N.Y., USA) supplemented with 15% fetal calf serum (D. Dutscher, Brumath, France), endothelial growth factor (10 ng mL^−1) and hydrocortisone (1 μg mL^−1)(Invitrogen). […] Radioactivity in the lysate was measured in a gamma counter, and adhesion was then calculated as RBCs per square millimeter. […] Inhibition of RBC adhesion was assessed using HMEC preincubated with specific antibodies directed against PS receptor (polyclonal anti-PS receptor antibody, Sigma, St Louis, Mo., USA; polyclonal anti-human stabilin-2 antibody, R&D systems, Minneapolis, Minn., USA) or against human CD36 (monoclonal anti-CD36/SR-B3; R&D systems) or antihuman Brain-specific angiogenesis inhibitor-1 (BAI-1; Santa Cruz Biotechnology, Santa Cruz, Calif., USA). […]

Molecule	effect on RBC adhesion (in words) (RBC adhesion in SCD)	inhibition of CRVO RBC adhesion to HMEC ([1]; according to the shear stress)	inhibition of CRVO RBC adhesion to HMEC ([1]; shear stress 0.1 Pa)	inhibition of CRVO RBC adhesion to HMEC ([1]; shear stress 0.3 Pa)	inhibition of CRVO RBC adhesion to HMEC [2] [%]
NC(=O)NO [hydroxyurea]	reduced RBC adhesion				
Annexin V: recombinant, purified annexin V (BD Biosciences); binds to PS (protein, UniProt P08758 2-320, looked up) Annexin A5: AQVLRGTVTDFPGFDERADAETLRKAMKGLGTDEESILTLLTSRSNAQRQEISAAFKTLFGRDLLDDLKSELTGKFEKLIVALMKPSRLYDAYELKHALKGAGTNEKVLTEIIASRTPEELRAIKQVYEEEYGSSLEDDVVGDTSGYYQRMLVVLLQANRDPDAGIDEAQVEQDAQALFQAGELKWGTDEEKFITIFGTRSVSHLRKVFDKYMTISGFQIEETIDRETSGNLEQLLLAVVKSIRSIPAYLAETLYYAMKGAGTDDHTLIRVMVSRSEIDLFNIRKEFRKNFATSLYSMIKGDTSGDYKKALLLLCGEDD		68-74%	75%±6%	74%±8%	35
